The supplement of paper PMC7877785
± gives the uncertainty stated by the source.

Assay: self-splicing fitness, log relative to wild type (ln ratio); higher = more splicing; Tetrahymena group I intron in knt gene, E. coli kanamycin selection, DiMSum; sequences stand for … in CUCUCU…GGAGGGAAAAGUUAUCAGGCAUGCACCUGGUAGCUAGUCUUUAAACCAAUAGAUUGCAUCGGUUUAAAAGGCAAGACCGUCAAAUUGCGGGAAAGGGGUCAACAGCCGUUCAGUACCAAGUCUCAGGGGAAACUUUGAGAUGGCCUUGCAAAGGGUAUGGUAAUAAGCUGACGGACAUGGUCCUAACCACGCAGCCAAGUCCUAAGUCAACAGAUCUUCUGUUGAUAUGGAUGCAGUUCACAGACUAAAUGUCGGUCGGGGAAGAUGUAUUCUUCUCAUAAGAUAUAGUCGGACCUCUCCUUAAUGGGAGCUAGCGGAUGAAGUGAUGCAACACUGGAGCCGCUGGGAACUAAUUUGUAUGCGAAAGUAUAUUGAUUAGUUUUGGAGUACUCGUGGUCG
Outline: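 The eight P1ex-region nucleotides of an intron in the knt kanamycin-resistance gene on pET-22b(+) were all randomised and the library put into E. coli BL21(DE3). Six replicate transformations were grown overnight at 37°C or 30°C on LB agar with or without 25 μg/mL kanamycin, together with 100 μg/mL carbenicillin, 50 μM IPTG and 0.2% rhamnose. Colonies were pooled and amplicon-sequenced on an Illumina HiSeq 2500. Fitness from DiMSum is the error-weighted combination of wild-type-normalised replicate fold changes, kanamycin over none.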

| Sequence | self-splicing fitness (ln) (30 °C) | self-splicing fitness (ln) (37 °C) |
| --- | --- | --- |
| GAACAGCAAUAUUACGCUGG | -1.98 ± 0.28 | -1.3 ± 0.2 |
| GAACAGCAAUAUUACGGCGC | -0.147 ± 0.065 | -0.195 ± 0.09 |
| GAACAGCAAUAUUACGGCGG | -3.13 ± 0.16 | -0.604 ± 0.12 |
| GAACAGCAAUAUUACGGUAC | -1.37 ± 0.064 | -0.573 ± 0.072 |
| GAACAGCAAUAUUACGGUCC | -4.14 ± 0.25 | -0.683 ± 0.13 |
| GAACAGCAAUAUUACGGUGC | -1.38 ± 0.074 | -1.22 ± 0.086 |
| GAACAGCAAUAUUACGUACU | -1.26 ± 0.077 | -0.125 ± 0.1 |
| GAACAGCAAUAUUACGUAGG | -2.12 ± 0.057 | -0.569 ± 0.066 |
| GAACAGCAAUAUUACGUUCU | -3.36 ± 0.13 | -3.63 ± 0.2 |
| GAAGAGCAAUAUUACGAAAG | -4.13 ± 0.31 | -2.41 ± 0.18 |
| GAAGAGCAAUAUUACGAACG | – | -2.41 ± 0.33 |
| GAAGAGCAAUAUUACGAAGC | -3.81 ± 0.46 | -0.865 ± 0.3 |
| GAAGAGCAAUAUUACGAAUC | -3.48 ± 0.22 | -1.91 ± 0.15 |
| GAAGAGCAAUAUUACGACAC | -1.1 ± 0.31 | 0.351 ± 0.33 |
| GAAGAGCAAUAUUACGACGG | -2.5 ± 0.37 | -2.67 ± 0.48 |
| GAAGAGCAAUAUUACGAGAC | -3.95 ± 0.26 | -1.4 ± 0.25 |
| GAAGAGCAAUAUUACGAUGG | -3.18 ± 0.17 | -2.1 ± 0.23 |
| GAAGAGCAAUAUUACGCAUG | -3.45 ± 0.47 | -2.36 ± 0.33 |
| GAAGAGCAAUAUUACGCCCA | -3.65 ± 0.48 | -0.321 ± 0.31 |
| GAAGAGCAAUAUUACGGCAA | – | -2.36 ± 0.49 |
| GAAGAGCAAUAUUACGGCCA | -1.59 ± 0.3 | -1.27 ± 0.5 |
| GAAGAGCAAUAUUACGGCGA | -1.57 ± 0.2 | -0.931 ± 0.25 |
| GAAGAGCAAUAUUACGGUCA | -2.72 ± 0.34 | -2.05 ± 0.23 |
| GAAGAGCAAUAUUACGGUCC | -2.17 ± 0.26 | -2.32 ± 0.33 |

| Sequence | self-splicing fitness (ln) (30 °C) | self-splicing fitness (ln) (37 °C) |
| --- | --- | --- |
| GAAGAGCAAUAUUACGGUCG | -3.24 ± 0.13 | -1.61 ± 0.15 |
| GAAGAGCAAUAUUACGGUGU | -3.49 ± 0.14 | -3.02 ± 0.23 |
| GAAGAGCAAUAUUACGGUUA | -1.49 ± 0.19 | -1.27 ± 0.23 |
| GAAGAGCAAUAUUACGUAGU | -2.69 ± 0.13 | -2.88 ± 0.2 |
| GAAGAGCAAUAUUACGUCAU | -3.91 ± 0.48 | -2.13 ± 0.38 |
| GAAGAGCAAUAUUACGUCUC | -2.37 ± 0.37 | -1.19 ± 0.49 |
| GAAGAGCAAUAUUACGUGAC | -3.21 ± 0.22 | -1.72 ± 0.18 |
| GAAGAGCAAUAUUACGUUUU | -4.09 ± 0.23 | -2.38 ± 0.21 |
| GAAUAGCAAUAUUACGAAGG | -2.77 ± 0.27 | – |
| GAAUAGCAAUAUUACGCCCG | -1.28 ± 0.18 | -0.828 ± 0.23 |
| GAAUAGCAAUAUUACGCCUU | -0.0381 ± 0.072 | 0.111 ± 0.081 |
| GAAUAGCAAUAUUACGCGCA | -0.334 ± 0.066 | -0.494 ± 0.074 |
| GAAUAGCAAUAUUACGCGUC | -1.98 ± 0.23 | 0.15 ± 0.32 |
| GAAUAGCAAUAUUACGCUAA | -2.59 ± 0.25 | -1.05 ± 0.25 |
| GAAUAGCAAUAUUACGCUUU | -2.02 ± 0.15 | -1.35 ± 0.16 |
| GAAUAGCAAUAUUACGGAGG | -4.24 ± 0.3 | -2.27 ± 0.22 |
| GAAUAGCAAUAUUACGGUCU | -0.677 ± 0.084 | -0.0473 ± 0.097 |
| GAAUAGCAAUAUUACGGUUA | -0.656 ± 0.11 | -0.631 ± 0.091 |
| GAAUAGCAAUAUUACGUCUC | -0.581 ± 0.11 | -0.137 ± 0.16 |
| GAAUAGCAAUAUUACGUGCC | -0.897 ± 0.12 | -0.104 ± 0.15 |
| GAAUAGCAAUAUUACGUGUU | -2.18 ± 0.12 | -0.873 ± 0.1 |
| GAAUAGCAAUAUUACGUUGG | -3.3 ± 0.16 | -2.77 ± 0.2 |
| GAAUAGCAAUAUUACGUUUA | -1.79 ± 0.15 | -1.01 ± 0.15 |
| GACAAGCAAUAUUACGAAAG | -3.82 ± 0.23 | -3.18 ± 0.24 |

| Sequence | self-splicing fitness (ln) (30 °C) | self-splicing fitness (ln) (37 °C) |
| --- | --- | --- |
| GACAAGCAAUAUUACGACGU | -0.139 ± 0.065 | -0.167 ± 0.074 |
| GACAAGCAAUAUUACGACUA | -0.408 ± 0.058 | 0.117 ± 0.066 |
| GACAAGCAAUAUUACGAGAA | -1.77 ± 0.3 | -2.19 ± 0.22 |
| GACAAGCAAUAUUACGAGGU | -3.51 ± 0.15 | -2.92 ± 0.16 |
| GACAAGCAAUAUUACGAGUG | -1.55 ± 0.056 | -0.456 ± 0.073 |
| GACAAGCAAUAUUACGAUCG | -0.776 ± 0.086 | -0.39 ± 0.11 |
| GACAAGCAAUAUUACGCAAG | -2.27 ± 0.091 | -1.75 ± 0.12 |
| GACAAGCAAUAUUACGCCUA | -0.964 ± 0.093 | -0.0625 ± 0.088 |
| GACAAGCAAUAUUACGCCUG | -1.3 ± 0.093 | -0.0185 ± 0.1 |
| GACAAGCAAUAUUACGCUCU | -2.38 ± 0.13 | -1.08 ± 0.12 |
| GACAAGCAAUAUUACGCUUC | -3.75 ± 0.26 | -2.25 ± 0.25 |
| GACAAGCAAUAUUACGGCUG | -0.552 ± 0.082 | -0.635 ± 0.11 |
| GACAAGCAAUAUUACGGGUC | -3.73 ± 0.19 | -3.15 ± 0.28 |
| GACAAGCAAUAUUACGGGUU | -3.38 ± 0.14 | -3.46 ± 0.17 |
| GACAAGCAAUAUUACGGUCG | -1.22 ± 0.076 | -0.0208 ± 0.09 |
| GACAAGCAAUAUUACGGUUA | -0.281 ± 0.079 | -0.186 ± 0.077 |
| GACAAGCAAUAUUACGGUUC | -3.57 ± 0.16 | -2.81 ± 0.32 |
| GACAAGCAAUAUUACGUAAU | -2.61 ± 0.088 | -1.16 ± 0.081 |
| GACAAGCAAUAUUACGUAUA | -1.76 ± 0.15 | -1.79 ± 0.13 |
| GACAAGCAAUAUUACGUGGG | -4.48 ± 0.2 | -1.87 ± 0.12 |
| GACAAGCAAUAUUACGUGUU | -3.4 ± 0.12 | -2.21 ± 0.12 |
| GACCAGCAAUAUUACGAAUG | -1.82 ± 0.071 | -1.49 ± 0.088 |
| GACCAGCAAUAUUACGACAU | -0.634 ± 0.011 | -0.0858 ± 0.032 |
| GACCAGCAAUAUUACGACGC | 0.184 ± 0.074 | -0.35 ± 0.085 |

| Sequence | self-splicing fitness (ln) (30 °C) | self-splicing fitness (ln) (37 °C) |
| --- | --- | --- |
| GACCAGCAAUAUUACGAUCA | -1.38 ± 0.1 | -1.1 ± 0.12 |
| GACCAGCAAUAUUACGAUGA | -0.717 ± 0.071 | -0.509 ± 0.085 |
| GACCAGCAAUAUUACGCACA | -0.51 ± 0.05 | -0.0966 ± 0.07 |
| GACCAGCAAUAUUACGCAUU | -0.15 ± 0.053 | 0.0155 ± 0.067 |
| GACCAGCAAUAUUACGCGAC | -2.3 ± 0.11 | -1.04 ± 0.13 |
| GACCAGCAAUAUUACGCUAA | -1.18 ± 0.078 | 0.196 ± 0.093 |
| GACCAGCAAUAUUACGGAAU | -0.34 ± 0.046 | 0.128 ± 0.066 |
| GACCAGCAAUAUUACGGACG | 0.108 ± 0.075 | 0.272 ± 0.094 |
| GACCAGCAAUAUUACGGCGU | 0.046 ± 0.071 | 0.319 ± 0.087 |
| GACCAGCAAUAUUACGUAGU | -0.667 ± 0.061 | -0.248 ± 0.077 |
| GACCAGCAAUAUUACGUCAA | -2.51 ± 0.18 | -1.06 ± 0.1 |
| GACCAGCAAUAUUACGUCGA | -1.44 ± 0.078 | -0.592 ± 0.078 |
| GACCAGCAAUAUUACGUCGG | -2.79 ± 0.21 | -1.98 ± 0.28 |
| GACCAGCAAUAUUACGUGCC | -0.32 ± 0.11 | -0.217 ± 0.13 |
| GACCAGCAAUAUUACGUGCU | -2.85 ± 0.12 | -2.63 ± 0.21 |
| GACGAGCAAUAUUACGAAGU | -3.26 ± 0.22 | -2.57 ± 0.26 |
| GACGAGCAAUAUUACGAUCA | -2.22 ± 0.36 | -0.86 ± 0.23 |
| GACGAGCAAUAUUACGCCGC | -2.06 ± 0.16 | -1.72 ± 0.38 |
| GACGAGCAAUAUUACGCGUA | -1.82 ± 0.12 | -1.95 ± 0.098 |
| GACGAGCAAUAUUACGCUAA | -2.64 ± 0.35 | -2.25 ± 0.31 |
| GACGAGCAAUAUUACGCUCG | -1.59 ± 0.35 | -1.6 ± 0.33 |
| GACGAGCAAUAUUACGGAAU | -3.93 ± 0.28 | -0.331 ± 0.16 |
| GACGAGCAAUAUUACGGCUA | -0.73 ± 0.11 | -0.653 ± 0.11 |
| GACGAGCAAUAUUACGUAGG | -3.47 ± 0.25 | -2.12 ± 0.22 |
